Patent EP0730609B1

Target: IL4 receptor on the gibbon cell line MLA (gibbon)
Assay: displacement of 125I-IL4 (83 pM added) from gibbon MLA cells

## recombinant human IL4 (E. coli, non-glycosylated) (from UniProt P05112 25-153) (ligand)
  IC50: 0.022 nM
